Measured values from the domain aggregation screens of Martell et al. (2025).

Assay: soluble fraction after stress (log2 fold change); higher = more stays soluble; pooled small domains, quantitative proteomics
Conditions: stress: 50 degC
In short: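 The measure of aggregation propensity here is the base-two logarithm of the fold change in the soluble amount of each protein after stress. A higher value means more of that protein stays in solution. Stress was applied at 50°C to pooled libraries of small protein domains, read out by high-throughput quantitative proteomics.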

Sequence	soluble fraction (log2)
HMAGTPAIVKWFNPTKGFGFVTPKEAGSDALLHASVLAKRGKRWLQEGTLVEVLIEEGPKGLVVSELLTIE	-0.748
HMAGTRRFELVEGSSSKFWEVTVADGSYTVTYGRIGTAGGSKTTESATAEADAEKLVREKLKKGYQEAGAA	0.245
HMAGTRVWSENGQLYVTAAVSGRANVYNVLGKLNRSLTFSAGETKSVSVPAGIYVVSLNNGKAYKVAV	-1.67
HMAGWIPVEERLPDDLTNPITRDAYVYPVTVDLGDVTDIRYYSFWRGHWYNQGPETMDDLVIAWMLLPEPY	-0.0981
HMAHESYVKEQLLLSLTNHEDPIMQISLIEQLTKMHERNIIHELEKLTVDVQTNEEVKVQAYASLLILS	-0.53
HMAHKYYSIMRPVSIGTFPDNGTILGIVNFDTRQMVESIGKMAWGYINYGKPLTEKQISDYELVAE	-0.451
HMAHLNYQTVDINALIRHSLQLVSQDAQSRGIALQFTPRPELTTISADPDRLNQVLLNLYLNAMQD	-0.334
HMAHLSPNDAARLVGVSRPLLNQILDEGRITFFETAGGHRKIKLAAVLAYIKERDEVAAQLAAART	-0.746
HMAHSDEAWSVARRVARELDKILDGAGPRRTALVRAAAELRLSTRQIYNLLARYRADRTVTSLLPRR	-0.316
HMAHSWEAIRVKLQQIIDEEDKTKPLNDDQIKEKLAEAGIPNLARRTVAKYRKLLNIPTARFRKR	-0.313
HMAIDINKIYSEIKKKIPNQDNHIKEILSIIWRDFNNYQNIKSRSILINGEKSSPKKEIFNIIEDNINIPV	0.0154
HMAIDPLLDKGYEQYDKGEFTEAVKSFNRAIEIDPKNAEAHFLRAMTYQGLALSKLAVADLEKAIV	0.136
HMAIGDYYINASALNVRSGEGTNYRIIGALPQGQKVQVISENSGWSKINYNGQTGYIGTRYLSKTPV	-0.00322
HMAIHTSVTEHGEHDLTVRMEMEQVFAIEMAVVSHEQATMLERTFKANAEAIYQKLLGVMTQEYP	-2.33
HMAISEEEATNLALERVPGASAQDLRIQLEFDDGVQKYEGDIIYDGKEYDFEIDANTGTFLEWSE	-0.151
HMAISSADRIVAELRTWISGASPGTQLPSSRTLAARYGASPVTVQKALHTLAGMGLVEARPGAGTFVRRQS	-0.189
HMAITVPEGATLSDAAVLLKQAGAVRSADAFLTRAKVFGGSTPIKAGEFVIPVQASNKDILAILQGGK	0.021
HMAKIATTVYEQIRTAILNGELSNSERLVEEDLAVSMGISRTPVREALRRLAAEGLVDVSPNRGARVAE	-0.293
HMAKINFTSDAIDIGMVTRNDIEMLSFYQNVLGLTKDMEIPFPGLGVVNKLSFGSGFIKILVL	-0.0122
HMAKLGITQREQEVLQLLVTGKTYKEIAAELFISLPTVKTHVSNIYSKAKVRNRLELSNLINYI	-2.73
HMAKNYYEILGLKSDATLPEIKKAFKKLSKKFHPDKNRDDDGYFESMFKSINEAYQVLIDEDKRATFDSHH	-0.59
HMAKPAALLFEHRFDGMAEMRFRENIVKNDDGSYTYDEYFLSMLDRAGLEKIVQENMEVWIAYAKQ	-2.17
HMAKPVKSPLPGSVIKVAVKVGQQIKRGDLLLTLESMKMENSILAEKDGVVKNIHVQAGQSVMQDDLLLDI	0.0752
HMAKPVNISAEPYHYDPTRFRVTFELPRLSDQPRKRIRKVAPAGLDREQALAWAKRLEREVLHELLR	-0.494
HMAKVSVNIILKDGVDQTTFVNDVTSNTEVDLKNQLISLPQMVVLSVEEDYINTLKSHSSISILELDE	-0.00499
HMALALDDLFDRYEQLQDQSLGDKTEEGQELRAMIRAYIEQEGLSVRVTRSTTNRELLELIEQEMEG	-0.174
HMALENTDLYAHLRLSHTASVPEIQAALSARVKHMPLQTWLLARKWLLHPRLRERYDGMWSVRFGA	-2.62
HMALGRTGEVYLPIPAGRAGHGKISITLQGALREVDAVTAGEALPRGTSVRVVDVAGNGVLLVEK	-0.059

Sequence	soluble fraction (log2)
HMALHDTLSYEEYLDLGLNGKADSAEKRELVAHALHLGRPNAKTLYKRLNMLQLNRKDVAALLEQ	0.0249
HMALHLPTTTINGRQYYYFKSKEKITVYGLSKRLGLTRQEIVEHNPSAVDGIKRGSTLYFPVDEFAD	-2.09
HMALLKRQDEILMYLYTQNKWITGNELAQLFHVSLRTIRNDISFINTEKSNSVLSNRNKGYHIAKDFVYNE	-0.924
HMALPDSEKRQWLVDEVNERGLKLPDDVLEYLFARVGRSQAHLVDVIEKLDFESLAQSRKLTIPFVREVLK	-0.152
HMALPRYFFRTRENGAVLFKTPVNNHQNRLEMHQIAAINIRNETVKPLGDTVLTDEETELIADWMRERKTV	-0.72
HMALSVRNRMSDLLRMLGDGEFHRFENLFSLEEGRHGIVVTFLAMLELAKEQLVEISQGESLAPIYLKSLA	-0.716
HMAMDVKEVLLPGVGLRYEFDNSDGDRIGVIAKRSGDFEVVRYTAADRDAAQPMFRLTDEEADALAQILGA	0.0786
HMAMDYYAIGQRIRKFRKAHDWSQEELAEKVEISTTHMSHIETGSTKLSLPVLVSLANVLDVRTDDLLF	-3.88
HMAMKFQDIVRQKRKELGLTQEQAARRLGVSPAAVSKWESGQSLPDTPLFAPLARLLHTDLNTLLSFE	-0.732
HMAMTQNVDLAGRIVFNEKKEEVFNFGKHKGRSVAEVFEKEPSYYDWMLKGDFPAETKQVLTALRLRGLS	-0.0725
HMAMTRTEYLNQLKHYLKRLPHTDYEEAMDYFKEYFEEAGPENEAQVIQDLGNPKEAAYEILSQLL	-0.253
HMANDNFPLKLGSKGPRVLQLKTMLIQSLSNDALPKGRSSDAFDSELEALLSRNNLPTVIDETNFRVLTK	0.386
HMANFGSILRNLRISRDITQSELAAKLGVSRSTVGMYETGAREPDFEAMEAIADTFNVDMDYLVGRSQ	-0.28
HMANLAQITKTNAVALALKDVGAYNSEDLMKFIDLDKVVLGEDGKPQLEDTINSLKESSPYLFQ	0.0767
HMANMTAKQINMFGDKLSRDKDFQSYYIAKSGDSREQYAQDIKGKLLDPFYVNAWMPYLEKIGFVPS	0.00797
HMANPEFAGYINGKPYFGPTHQHRGVKMLGATHTRNPHPLVWDSIAESLANYDSRFRWSGGQIL	-0.429
HMANTAKVNVDTANLRETADENSKILKQLSLNDNLEVVEETGDWYKVKNSNVTGYVRKDLVTVEN	0.371
HMANTLDPMDLKQIISLHLDGFSNRKIGATLGISRNTVNTYMRLFSVSDYALKELLTLDNATLDKLFPS	-2.01
HMANYYEILGVKHDATEAEIKAAYKQAAKSAHPDAGGSNEKMQEVNAAWEVLGNAQKRAEYDARMA	0.0756
HMAPAGGITRQDLFAWGLMGGEGSREKRQQLKKSLGLPSHLGTSGFLDALNLIATRDQVEALLHK	-0.15
HMAPAILTVQVKPDKIREIIGPGGKMIRMIQSETNTRVEVDDSGLVKIAAVSKEEGEAALKMVSDITME	0.134
HMAPDAPDGFVHRWIRAEMLGQEDKSNVHRRMQEGYELVRADEYPDSDLPVAEGRYAGIIGVGGLLLARF	-0.14
HMAPDDTAVWSAFIGWFRTAPDGPNPLGAYAAKLGEEGLDAAEVGRRMTVIVRLFAEKPEGAEVFYDRTYA	-0.875
HMAPDYYALLGVPRNATTAEVRKAFRGKALEQHPDRGGDEESFRLLSKAYDVLSDSERRKYYDRTG	0.0767
HMAPEKLVHELVGLSLRAGNLDLLAATLSAHKTVLSKESTAEYVKAGLAIEPNHLPLRVLAEQDLGWS	-0.57
HMAPFVIQQGQDVRLISKGPGFAVSNDGKALTNAAEGQLARARTANGQTVSGIARQGGIIEIA	0.00455
HMAPGIGDSKYFSHIYEMKHIDTIIDNDKGDRLIEHFEIQDTPFIFTKHWTSAFGFSKRQQEIITDYLSYF	0.0839
